Experimental data taken from article PMC12446771, “Proximity-dependent proteomics and network analysis of adenylyl cyclase isoforms 5, 6, and 9 in cardiomyocytes” (The Journal of Biological Chemistry, 2025).

Biological target: the molecule itself
Test: immunogold EM spatial mapping (univariate Ripley's K-function); intact apical plasma membrane sheets of BHK cells expressing AC5-YFP or AC6-RFP, 4.5 nm gold on anti-YFP or anti-RFP, TEM at 100,000×

B1: AC5-YFP (enzyme)
chain: not shown
notes: adenylyl cyclase type 5; printed as AC5-YFP in the results and YFP-AC5 in the methods; also called YFP-AC5; source: BHK cells, transfected, on intact apical plasma membrane sheets
- stoichiometry N: 2
